Assay results: patent US20250197482A1 (UNITED STATES OF AMERICA AS REPRESENTED BY THE SECRETARY …, published 2025)

B1: CAP256V2LS-J3-3 (bispecific antibody)
heavy: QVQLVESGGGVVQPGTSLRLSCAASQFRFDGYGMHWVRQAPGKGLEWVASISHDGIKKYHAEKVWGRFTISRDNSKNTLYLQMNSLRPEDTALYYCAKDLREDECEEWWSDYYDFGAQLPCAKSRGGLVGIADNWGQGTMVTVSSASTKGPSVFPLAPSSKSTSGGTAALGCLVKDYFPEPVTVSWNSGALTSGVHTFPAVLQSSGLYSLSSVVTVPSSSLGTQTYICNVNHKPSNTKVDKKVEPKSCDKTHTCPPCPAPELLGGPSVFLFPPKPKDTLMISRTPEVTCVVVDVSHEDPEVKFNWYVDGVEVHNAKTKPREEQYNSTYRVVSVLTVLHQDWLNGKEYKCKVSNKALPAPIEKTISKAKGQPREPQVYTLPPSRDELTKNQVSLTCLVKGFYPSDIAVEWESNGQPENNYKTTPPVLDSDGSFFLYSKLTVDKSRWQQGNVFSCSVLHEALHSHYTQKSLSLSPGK
light: EVQLVESGGGLVQAGGFLRLSCELRGSIFNQYAMAWFRQAPGKEREFVAGMGAVPHYGEFVKGRFTISRDNAKSTVYLQMSSLKPEDTAIYFCARSKSTYISYNSNGYDYWGRGTQVTVSSGGSGGGGSGGGGSGGQSVLTQPPSVSAAPGQKVTISCSGNTSNIGNNFVSWYQQRPGRAPQLLIYETDKRPSGIPDRFSASKSGTSGTLAITGLQTGDEADYYCATWAASLSSARVFGTGTQVIVLGQPKVNPTVTLFPPSSEELQANKATLVCLISDFYPGAVTVAWKADSSPVKAGVETTTPSKQSNNKYAASSYLSLTPEQWKSHRSYSCQVTHEGSTVEKTVAPTECS
B2: CAP256V2LS-10E8-2 (bispecific antibody)
heavy chain: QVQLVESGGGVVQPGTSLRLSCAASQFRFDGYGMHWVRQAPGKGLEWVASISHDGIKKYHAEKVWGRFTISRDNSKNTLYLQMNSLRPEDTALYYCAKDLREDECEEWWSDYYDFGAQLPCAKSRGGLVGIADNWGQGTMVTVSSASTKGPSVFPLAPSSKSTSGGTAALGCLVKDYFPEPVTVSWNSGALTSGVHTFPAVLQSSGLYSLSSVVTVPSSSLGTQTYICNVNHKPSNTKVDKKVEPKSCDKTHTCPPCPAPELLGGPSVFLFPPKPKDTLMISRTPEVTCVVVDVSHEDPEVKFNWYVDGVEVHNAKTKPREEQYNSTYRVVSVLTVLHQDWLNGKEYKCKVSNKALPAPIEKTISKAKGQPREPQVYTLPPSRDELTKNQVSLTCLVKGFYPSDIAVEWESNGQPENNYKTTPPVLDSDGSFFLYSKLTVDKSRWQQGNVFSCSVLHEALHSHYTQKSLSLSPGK
light chain (10E8v4 scFv, linker, CAP256V2LS LC): EVRLVESGGGLVKPGGSLRLSCSASGFDFDNAWMTWVRQPPGKGLEWVGRITGPGEGWSVDYAESVKGRFTISRDNTKNTLYLEMNNVRTEDTGYYFCARTGKYYDFWSGYPPGEEYFQDWGQGTLVIVSSGGGGSGGGGSGGGGSSELTQDPAVSVALKQTVTITCRGDSLRSHYASWYQKKPGQAPVLLFYGKNNRPSGIPDRFSGSASGNRASLTITGAQAEDEADYYCSSRDKSGSRLSVFGGGTKLTVGGSGGGGSGGQSVLTQPPSVSAAPGQKVTISCSGNTSNIGNNFVSWYQQRPGRAPQLLIYETDKRPSGIPDRFSASKSGTSGTLAITGLQTGDEADYYCATWAASLSSARVFGTGTQVIVLGQPKVNPTVTLFPPSSEELQANKATLVCLISDFYPGAVTVAWKADSSPVKAGVETTTPSKQSNNKYAASSYLSLTPEQWKSHRSYSCQVTHEGSTVEKTVAPTECS
B3: CAP256V2LS-J3-2 (bispecific antibody)
heavy: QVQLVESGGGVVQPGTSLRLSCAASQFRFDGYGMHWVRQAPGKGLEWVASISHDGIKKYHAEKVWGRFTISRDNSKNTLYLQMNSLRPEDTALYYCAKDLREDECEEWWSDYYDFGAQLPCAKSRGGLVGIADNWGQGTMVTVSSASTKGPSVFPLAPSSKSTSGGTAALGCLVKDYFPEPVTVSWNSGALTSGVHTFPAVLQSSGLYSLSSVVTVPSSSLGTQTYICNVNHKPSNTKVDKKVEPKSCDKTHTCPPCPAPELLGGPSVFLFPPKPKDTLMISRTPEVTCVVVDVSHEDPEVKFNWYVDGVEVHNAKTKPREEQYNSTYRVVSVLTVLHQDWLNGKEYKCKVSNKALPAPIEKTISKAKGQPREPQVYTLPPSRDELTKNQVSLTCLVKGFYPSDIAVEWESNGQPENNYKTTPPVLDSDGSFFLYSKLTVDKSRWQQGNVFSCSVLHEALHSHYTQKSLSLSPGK
light: EVQLVESGGGLVQAGGFLRLSCELRGSIFNQYAMAWFRQAPGKEREFVAGMGAVPHYGEFVKGRFTISRDNAKSTVYLQMSSLKPEDTAIYFCARSKSTYISYNSNGYDYWGRGTQVTVSSGGSGGGGSGGQSVLTQPPSVSAAPGQKVTISCSGNTSNIGNNFVSWYQQRPGRAPQLLIYETDKRPSGIPDRFSASKSGTSGTLAITGLQTGDEADYYCATWAASLSSARVFGTGTQVIVLGQPKVNPTVTLFPPSSEELQANKATLVCLISDFYPGAVTVAWKADSSPVKAGVETTTPSKQSNNKYAASSYLSLTPEQWKSHRSYSCQVTHEGSTVEKTVAPTECS
B4: CAP256V2LS-10E8-1 (bispecific antibody)
heavy chain: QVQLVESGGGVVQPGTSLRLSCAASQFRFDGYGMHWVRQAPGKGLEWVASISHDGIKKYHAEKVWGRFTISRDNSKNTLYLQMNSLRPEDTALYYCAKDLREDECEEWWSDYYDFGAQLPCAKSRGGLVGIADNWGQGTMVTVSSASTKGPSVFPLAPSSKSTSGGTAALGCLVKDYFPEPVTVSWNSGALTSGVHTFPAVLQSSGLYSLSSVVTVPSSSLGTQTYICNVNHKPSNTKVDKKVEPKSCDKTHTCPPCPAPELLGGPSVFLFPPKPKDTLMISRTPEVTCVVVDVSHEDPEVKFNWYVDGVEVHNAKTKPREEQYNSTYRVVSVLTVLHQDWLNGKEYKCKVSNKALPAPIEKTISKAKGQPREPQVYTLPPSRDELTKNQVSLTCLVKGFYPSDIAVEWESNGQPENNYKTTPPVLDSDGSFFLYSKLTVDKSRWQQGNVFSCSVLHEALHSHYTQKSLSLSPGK
light chain (10E8v4 scFv, linker, CAP256V2LS LC): EVRLVESGGGLVKPGGSLRLSCSASGFDFDNAWMTWVRQPPGKGLEWVGRITGPGEGWSVDYAESVKGRFTISRDNTKNTLYLEMNNVRTEDTGYYFCARTGKYYDFWSGYPPGEEYFQDWGQGTLVIVSSGGGGSGGGGSGGGGSSELTQDPAVSVALKQTVTITCRGDSLRSHYASWYQKKPGQAPVLLFYGKNNRPSGIPDRFSGSASGNRASLTITGAQAEDEADYYCSSRDKSGSRLSVFGGGTKLTVGGSGGQSVLTQPPSVSAAPGQKVTISCSGNTSNIGNNFVSWYQQRPGRAPQLLIYETDKRPSGIPDRFSASKSGTSGTLAITGLQTGDEADYYCATWAASLSSARVFGTGTQVIVLGQPKVNPTVTLFPPSSEELQANKATLVCLISDFYPGAVTVAWKADSSPVKAGVETTTPSKQSNNKYAASSYLSLTPEQWKSHRSYSCQVTHEGSTVEKTVAPTECS
B5: CAP256V2LS-10E8-3 (bispecific antibody)
heavy chain: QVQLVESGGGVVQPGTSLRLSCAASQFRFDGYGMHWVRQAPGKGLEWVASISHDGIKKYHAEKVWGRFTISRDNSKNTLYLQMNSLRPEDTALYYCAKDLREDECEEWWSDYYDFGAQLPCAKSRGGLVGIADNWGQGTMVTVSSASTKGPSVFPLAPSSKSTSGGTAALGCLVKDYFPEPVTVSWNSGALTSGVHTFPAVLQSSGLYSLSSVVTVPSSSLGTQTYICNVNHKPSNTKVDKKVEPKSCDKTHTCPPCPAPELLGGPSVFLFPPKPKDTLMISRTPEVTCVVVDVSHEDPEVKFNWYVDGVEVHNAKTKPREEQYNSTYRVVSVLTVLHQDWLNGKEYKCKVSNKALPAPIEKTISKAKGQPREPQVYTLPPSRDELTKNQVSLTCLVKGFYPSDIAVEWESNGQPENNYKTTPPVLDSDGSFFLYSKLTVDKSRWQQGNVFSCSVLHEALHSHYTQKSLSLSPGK
light chain (10E8v4 scFv, linker, CAP256V2LS LC): EVRLVESGGGLVKPGGSLRLSCSASGFDFDNAWMTWVRQPPGKGLEWVGRITGPGEGWSVDYAESVKGRFTISRDNTKNTLYLEMNNVRTEDTGYYFCARTGKYYDFWSGYPPGEEYFQDWGQGTLVIVSSGGGGSGGGGSGGGGSSELTQDPAVSVALKQTVTITCRGDSLRSHYASWYQKKPGQAPVLLFYGKNNRPSGIPDRFSGSASGNRASLTITGAQAEDEADYYCSSRDKSGSRLSVFGGGTKLTVGGSGGGGSGGGGSGGQSVLTQPPSVSAAPGQKVTISCSGNTSNIGNNFVSWYQQRPGRAPQLLIYETDKRPSGIPDRFSASKSGTSGTLAITGLQTGDEADYYCATWAASLSSARVFGTGTQVIVLGQPKVNPTVTLFPPSSEELQANKATLVCLISDFYPGAVTVAWKADSSPVKAGVETTTPSKQSNNKYAASSYLSLTPEQWKSHRSYSCQVTHEGSTVEKTVAPTECS
B6: CAP256V2LS-J3-6 (bispecific antibody)
heavy chain: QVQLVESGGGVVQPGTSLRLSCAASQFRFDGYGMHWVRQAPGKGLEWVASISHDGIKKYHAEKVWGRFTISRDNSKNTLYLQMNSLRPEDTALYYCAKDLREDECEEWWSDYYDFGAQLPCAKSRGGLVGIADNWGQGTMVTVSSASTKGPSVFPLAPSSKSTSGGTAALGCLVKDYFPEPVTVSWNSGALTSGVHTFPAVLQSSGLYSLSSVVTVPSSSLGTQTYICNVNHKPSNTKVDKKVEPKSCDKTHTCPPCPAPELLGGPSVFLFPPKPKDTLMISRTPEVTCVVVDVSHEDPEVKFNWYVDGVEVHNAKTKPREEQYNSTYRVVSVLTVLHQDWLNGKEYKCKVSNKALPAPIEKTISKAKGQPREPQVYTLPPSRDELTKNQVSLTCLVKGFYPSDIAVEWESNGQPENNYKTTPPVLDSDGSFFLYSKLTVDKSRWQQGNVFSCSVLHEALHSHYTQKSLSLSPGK
light chain (J3 VHH, linker, CAP256V2LS LC): EVQLVESGGGLVQAGGFLRLSCELRGSIFNQYAMAWFRQAPGKEREFVAGMGAVPHYGEFVKGRFTISRDNAKSTVYLQMSSLKPEDTAIYFCARSKSTYISYNSNGYDYWGRGTQVTVSSDKTHTGDKTHTGDKTHTQSVLTQPPSVSAAPGQKVTISCSGNTSNIGNNFVSWYQQRPGRAPQLLIYETDKRPSGIPDRFSASKSGTSGTLAITGLQTGDEADYYCATWAASLSSARVFGTGTQVIVLGQPKVNPTVTLFPPSSEELQANKATLVCLISDFYPGAVTVAWKADSSPVKAGVETTTPSKQSNNKYAASSYLSLTPEQWKSHRSYSCQVTHEGSTVEKTVAPTECS

Columns and labels:
Experiment in all cases: cell-based or functional assay
[1] = molecular target: T1, HIV-1 Env of strain WITO.33 (Env-pseudotyped virus) (HIV-1)
[2] = molecular target: HIV-1 Env of strain SC422.8 (Env-pseudotyped virus) (HIV-1)
[3] = molecular target: T1, HIV-1 Env of strain WITO.33 …; remark: listed apart in the source
CAP256 wk34c80 = CAP256 wk34c80 (HIV-1)

Binder	neutralization potency, fold better than that of J3 [1]	neutralization potency, fold better than that of J3 [2]	% neutralization, single point, Env-pseudotyped virus on TZM-bl [3]	% neutralization, single point, Env-pseudotyped virus on TZM-bl (CAP256 wk34c80)
B1	~10 fold	3 fold	89%	100%
B2			45%	91%
B3	~10 fold	3 fold	100%	100%
B4			14%	98%
B5			21%	99%
B6			48%	100%
